# From patent publication US20160122417A1
# Target: wild-type human EGFR from A431 cells (human) (UniProt P00533)
# Experiment: scFv-linked agarose beads incubated with A431 cell lysate; captured EGFR detected with anti-EGFR antibody cocktail, bead fluorescence normalized to the U87-EGFRvIII lysate signal
substance,measurement,value
"MR1 scFv, azide-functionalized and immobilized on DBCO-functionalized agarose beads",percent reduction in A431 lysate EGFR binding signal relative to U87-EGFRvIII lysate signal,85%
